For one series, the target named is hnRNP A1 UP1 fragment (UniProt P09651 1-196). The series is described as follows: competition.
Another series concerns the target T1, KSRP (UniProt Q92945 1-711).
T1 sequence: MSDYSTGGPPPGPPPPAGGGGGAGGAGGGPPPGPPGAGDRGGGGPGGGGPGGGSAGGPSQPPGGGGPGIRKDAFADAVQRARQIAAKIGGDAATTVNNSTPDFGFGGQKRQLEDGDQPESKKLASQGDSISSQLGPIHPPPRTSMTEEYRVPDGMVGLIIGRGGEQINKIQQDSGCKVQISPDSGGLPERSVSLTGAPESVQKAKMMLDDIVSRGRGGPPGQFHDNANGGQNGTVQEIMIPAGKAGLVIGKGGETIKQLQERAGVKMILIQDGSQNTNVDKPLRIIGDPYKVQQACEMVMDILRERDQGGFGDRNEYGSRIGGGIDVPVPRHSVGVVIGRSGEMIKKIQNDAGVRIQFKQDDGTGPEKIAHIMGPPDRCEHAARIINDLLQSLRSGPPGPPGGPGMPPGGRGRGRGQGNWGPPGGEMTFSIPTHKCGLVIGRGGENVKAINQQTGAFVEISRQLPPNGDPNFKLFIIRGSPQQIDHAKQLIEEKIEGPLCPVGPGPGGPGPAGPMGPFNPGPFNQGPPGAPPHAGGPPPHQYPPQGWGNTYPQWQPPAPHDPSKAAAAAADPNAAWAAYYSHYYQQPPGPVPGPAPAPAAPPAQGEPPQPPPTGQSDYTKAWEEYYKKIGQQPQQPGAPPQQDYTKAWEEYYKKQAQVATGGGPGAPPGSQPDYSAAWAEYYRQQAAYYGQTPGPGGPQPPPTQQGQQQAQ
The series is described as follows: competition.

Chain of hnRNP A1 UP1 fragment (P09651 1-196): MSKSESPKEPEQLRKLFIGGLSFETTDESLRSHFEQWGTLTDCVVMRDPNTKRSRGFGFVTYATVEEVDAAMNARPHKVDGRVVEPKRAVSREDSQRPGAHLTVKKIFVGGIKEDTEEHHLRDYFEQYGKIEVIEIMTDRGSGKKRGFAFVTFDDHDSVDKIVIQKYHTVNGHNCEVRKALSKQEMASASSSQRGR

Take GUUGUAUAGUUUUAGGGUCACACCCACCACUGGGAGAUAACUAUACAAUC (structured_RNA) [let-7a-1 loop]: the binding result in the series with hnRNP A1 UP1 fragment and in the series with KSRP was “binds” in each case.

Source of the values: publication PMC2923024.
